Biological target: U1-A protein of the native human U1 snRNP (human (endogenous in HeLa)) (UniProt P09012)
Experiment: native MS; nano ESI-MS of the intact U1 snRNP purified from HeLa cells, 200 mM ammonium acetate, Q-ToF2, collision cell 100 V; the complex holds U1 snRNA

UniProt P09012, sequence (P09012 whole entry): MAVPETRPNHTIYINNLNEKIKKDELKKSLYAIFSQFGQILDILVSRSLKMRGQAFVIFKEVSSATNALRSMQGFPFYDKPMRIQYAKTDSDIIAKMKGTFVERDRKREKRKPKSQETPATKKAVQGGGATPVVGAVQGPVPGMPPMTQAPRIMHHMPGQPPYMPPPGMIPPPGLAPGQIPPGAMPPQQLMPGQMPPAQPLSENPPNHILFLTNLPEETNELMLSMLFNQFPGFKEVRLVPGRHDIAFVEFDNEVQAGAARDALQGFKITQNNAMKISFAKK

Row | Substance | stoichiometry N
1 | Sm-D1 (from UniProt P62314 1-119) (natural protein; other documents disagree on this pair) | 1
2 | Sm-F (from UniProt P62306 1-86) (natural protein; other documents disagree on this pair) | 1

Source: publication PMC2747018
